Where a chain is given by its changes, count along the chain named.
Columns and labels:
Test in all cases: cell-based or functional assay
hu-IL-36β [1] = target: T1, hu-IL-36β (human)
T1 chain: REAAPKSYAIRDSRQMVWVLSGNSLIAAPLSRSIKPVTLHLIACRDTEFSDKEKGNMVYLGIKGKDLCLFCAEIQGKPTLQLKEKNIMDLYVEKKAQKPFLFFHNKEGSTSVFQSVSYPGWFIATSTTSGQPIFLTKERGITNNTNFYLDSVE

hu-IL-36β [2] = target: T1, hu-IL-36β
hu-IL-36α [3] = target: T2, hu-IL-36α (human, UniProt Q9UHA7 6-158)
T2 sequence: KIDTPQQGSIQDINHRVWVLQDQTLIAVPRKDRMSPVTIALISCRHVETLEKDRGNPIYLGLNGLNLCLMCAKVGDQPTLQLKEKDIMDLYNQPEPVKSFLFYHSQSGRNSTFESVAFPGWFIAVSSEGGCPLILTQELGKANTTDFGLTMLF

hu-IL-36β [4] = target: T1, hu-IL-36β
hu-IL-36γ [5] = target: T3, hu-IL-36γ (human, UniProt Q9NZH8 18-169)
T3 sequence: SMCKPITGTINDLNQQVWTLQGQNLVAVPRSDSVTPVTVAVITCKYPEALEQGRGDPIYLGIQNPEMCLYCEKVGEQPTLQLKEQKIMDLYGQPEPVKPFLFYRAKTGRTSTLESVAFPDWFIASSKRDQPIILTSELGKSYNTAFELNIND

hu-IL-36α [6] = target: T2, hu-IL-36α; remark: listed apart in the source
hu-IL-36γ [7] = target: T3, hu-IL-36γ; remark: listed apart in the source
hu-IL-36α [8] = target: T2, hu-IL-36α; remark: listed apart in the source
hu-IL-36γ [9] = target: T3, hu-IL-36γ; remark: listed apart in the source
cy-IL-36α = target: T4, cy-IL-36α (cynomolgus monkey, UniProt Q9UHA7 14-158 (human entry), limits assumed)
T4 chain: T2 sequence with I2S, D3E, T4M, Q7P, G8V, T24I, M34V, A40S, V74A

cy-IL-36γ = target: T5, cy-IL-36γ (cynomolgus monkey, UniProt Q9NZH8 18-167 (human entry), limits assumed)
T5 chain: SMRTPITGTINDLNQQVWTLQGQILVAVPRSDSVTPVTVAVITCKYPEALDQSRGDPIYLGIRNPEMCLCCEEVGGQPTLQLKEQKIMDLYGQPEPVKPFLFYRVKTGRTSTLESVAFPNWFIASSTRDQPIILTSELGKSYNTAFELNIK

B1: mAb8.0 Fab (Fab, V domains shown)
VH: QVQLVQSGAEVKKPGSSVKVSCKASGGTFSNYAISWVRQAPGQGLEWMGGILPILGTVDYAQKFQGRVTITADESTSTAYMELSSLRSEDTAVYYCAREPWYRLGAFDVWGQGTLVTVSS
VL: DIQMTQSPSSLSASVGDRVTITCRASQTIYKYLNWYQQKPGKAPKLLIYAASSLQSGVPSRFSGSGSGTDFTLTISSLQPEDFATYYCQQYSSIPYTFGQGTKVEIK
For B1, the “% Inhibition, HEK Blue SEAP reporter assay” value (“% Inhibition” below) (hu-IL-36β [1]) was 85%.

B2: mAb8.0 IgG (antibody, V domains shown)
VH: B1 VH
VL: B1 VL
For B2, the “IC50, HEK Blue SEAP reporter assay” value (hu-IL-36β [2]) was 0.34 nM.

B3: anti-IL-36 multispecific antibody mAb2.10/mAb6_2.7 (bispecific antibody, human IgG1, lambda, N297G)
heavy 1: not shown
heavy 2: not shown
light: ESVLTQPPSVSGAPGQRVTISCTGSSSNIGAHYDVHWYQQLPGTAPKLLIYGNDNRPSGVPDRFSGSKSGTSASLAITGLQAEDEADYYCQSYDYSLSGYVFGGGTKLTVLGQPKAAPSVTLFPPSSEELQANKATLVCLISDFYPGAVTVAWKADSSPVKAGVETTTPSKQSNNKYAASSYLSLTPEQWKSHKSYSCQVTHEGSTVEKTVAPTECS
With B3 the “percent of IL-8 production in HaCat cells inhibited at 8 nM antibody” value (hu-IL-36α [3]) was 100%, the “percent of IL-8 production in primary human adult keratinocytes inhibited at 8 nM antibody” value (hu-IL-36α [3]) was 100% and the “percent of IL-8 production in HaCat cells inhibited at 8 nM antibody” value (hu-IL-36β [4]) was 100%. The “percent of IL-8 production in primary human adult keratinocytes inhibited at 8 nM antibody” value (hu-IL-36β [4]) was 100%, the “percent of IL-8 production in HaCat cells inhibited at 8 nM antibody” value (hu-IL-36γ [5]) was 100% and the “percent of IL-8 production in primary human adult keratinocytes inhibited at 8 nM antibody” value (hu-IL-36γ [5]) was 100%.

B4: mAb7.0 Fab (Fab, V domains shown)
VH: QVQLVESGGGVVQPGRSLRLSCAASGFTFSSYGMHWVRQAPGKGLEWVAVISYGGSERYYADSVKGRFTISRDNSKNTLYLQMNSLRAEDTAVYYCAREPWYSSRGWTGYGFDVWGQGTLVTVSS
VL: EIVLTQSPGTLSLSPGERATLSCRASQSVSSNYLAWYQQKPGQAPKLLIYSASSLQSGVPSRFSGSGSGTDFTLTISSLQPEDFATYYCQQTYSYPPTFGQGTKVEIK
For B4, the “% Inhibition” value (hu-IL-36β [1]) was 84%.

B5: mAb7.0 IgG (antibody, V domains shown)
VH: B4 VH
VL: B4 VL
For B5, the “IC50, HEK Blue SEAP reporter assay” value (hu-IL-36β [2]) was 1.4 nM.

B6: mAb1.0 Fab (Fab, V domains shown)
VH: QVQLVESGGGVVQPGRSLRLSCAASGFSFSAYAMHWVRQAPGKGLEWVAVISYDGTNEYYADSVKGRFTISRDNSKNTLYLQMNSLRAEDTAVYYCARGIRIFTSYFDSWGQGTLVTVSS
VL: QSVLTQPPSVSGAPGQRVTISCTGSSSNIGAHYDVHWYQQLPGTAPKLLIYSNNNRPSGVPDRFSGSKSGTSASLAITGLQAEDEADYYCQSYDYSLRGYVFGGGTKLTVL
In the case of B6, the “% Inhibition” value (hu-IL-36α [6]) is reported as 70% and the “% Inhibition” value (hu-IL-36γ [7]) is reported as 31%.

B7: mAb5.0 IgG (antibody, V domains shown)
VH: EVQLLESGGGLVQPGGSLRLSCAASGFTFSTYAMSWVRQAPGKGLEWVSGISGGSGYTYYADSVKGRFTISRDNSKNTLYLQMNSLRAEDTAVYYCARVVTYRDPPASFDYWGQGTLVTVSS
VL: B6 VL with S52G, N54D, R98K, G99A
B7 was tested, and the “IC50, HEK Blue SEAP reporter assay” value (hu-IL-36α [8]) was 95 nM and the “IC50, HEK Blue SEAP reporter assay” value (hu-IL-36γ [9]) was 142 nM.

B8: mAb3.0 Fab (Fab, V domains shown)
VH: QLQLQESGPGLVKPSETLSLTCTVSGGSISSTSYYWGWIRQPPGKGLEWIGSIHYSGNTYYNPSLKSRVTISVDTSKNQFSLKLSSVTAADTAVYYCARVHYGGYIPRRFDHWGQGTLVTVSS
VL: B6 VL with H32G, S52G, N54T
With B8 the “% Inhibition” value (hu-IL-36α [6]) was 40% and the “% Inhibition” value (hu-IL-36γ [7]) was 64%.

B9: mAb5.0 Fab (Fab, V domains shown)
VH: B7 VH
VL: B6 VL with S52G, N54D, R98K, G99A
With B9 the “% Inhibition” value (hu-IL-36α [6]) was 75% and the “% Inhibition” value (hu-IL-36γ [7]) was 75%.

B10: mAb4.0 Fab (Fab, V domains shown)
VH: QLQLQESGPGLVKPSETLSLTCTVSGGSIGSRSYYWGWIRQPPGKGLEWIGSIHYSGTTYYNPSLKSRVTISVDTSKNQFSLKLSSVTAADTAVYYCARVAPSYPRVFDYWGQGTLVTVSS
VL: B6 VL with H32G, S52G, N54R, G99V
With B10 the “% Inhibition” value (hu-IL-36α [6]) was 91% and the “% Inhibition” value (hu-IL-36γ [7]) was 57%.

B11: mAb1.0 IgG (antibody, V domains shown)
VH: B6 VH
VL: B6 VL
For B11, the “IC50, HEK Blue SEAP reporter assay” value (hu-IL-36α [8]) was 43 nM and the “IC50, HEK Blue SEAP reporter assay” value (hu-IL-36γ [9]) was 5.3 nM.

B12: mAb4.0 IgG (antibody, V domains shown)
VH: B10 VH
VL: B6 VL with H32G, S52G, N54R, G99V
B12 was tested, and the “IC50, HEK Blue SEAP reporter assay” value (hu-IL-36α [8]) was 16 nM and the “IC50, HEK Blue SEAP reporter assay” value (hu-IL-36γ [9]) was 52 nM.

B13: mAb3.0 IgG (antibody, V domains shown)
VH: B8 VH
VL: B6 VL with H32G, S52G, N54T
For B13, the “IC50, HEK Blue SEAP reporter assay” value (hu-IL-36α [8]) was 90 nM and the “IC50, HEK Blue SEAP reporter assay” value (hu-IL-36γ [9]) was 30 nM.

B14: mAb2.0 Fab (Fab, V domains shown)
VH: B8 VH with S31T, T32S, H54Y, S56T, H101R, G104V, Y105G, I106V, R109Y, H112P
VL: B6 VL with S52G, N54D, R98S
In the case of B14, the “% Inhibition” value (hu-IL-36α [6]) is reported as 91% and the “% Inhibition” value (hu-IL-36γ [7]) is reported as 89%.

B15: mAb6.0 Fab (Fab, V domains shown)
VH: QLQLQESGPGLVKPSETLSLTCTVSGGSITSSNYYWGWIRQPPGKGLEWIGSIDYTGSTYYNPSLKSRVTISVDTSKNQFSLKLSSVTAADTAVYYCARGKYYETYLGFDVWGQGTLVTVSS
VL: B6 VL with H32G, S52G, N54T, Y95I, R98S, Y100W
B15 was tested, and the “% Inhibition” value (hu-IL-36β [1]) was 86%.

B16: mAb2.0 IgG (antibody, V domains shown)
VH: B8 VH with S31T, T32S, H54Y, S56T, H101R, G104V, Y105G, I106V, R109Y, H112P
VL: QSVLTQPPSVSGAPGQRVTISCTGSSSNIGAHYDVHWYQQLPGTAPKLLIYGNDNRPSGVPDRFSGSKSGTSASLAITGLQAEDEADYYCQSYDYSLSGYVFGGGTKLTVLG
With B16 the “IC50, HEK Blue SEAP reporter assay with cynomolgus IL-36 on human IL-36 receptor” value (cy-IL-36α) was 0.56 nM, the “IC50, HEK Blue SEAP reporter assay with cynomolgus IL-36 on human IL-36 receptor” value (cy-IL-36γ) was 1.71 nM and the “IC50, HEK Blue SEAP reporter assay” value (hu-IL-36α [8]) was 5.7 nM. For the same binder, the “IC50, HEK Blue SEAP reporter assay” value (hu-IL-36γ [9]) was 7.5 nM.

B17: mAb6.0_2.0 IgG (antibody, V domains shown)
VH: B15 VH
VL: B16 VL
With B17 the “fold lower potency than mAb6.0 IgG, HaCat IL-8 assay” value (hu-IL-36β [4]) was 16 fold.

From patent publication US20200199217A1 (published 2020)
